Drawing on the RNAGym collection of RNA variant scans (doi:10.1093/nar/gkz1192), this text covers self-cleavage for 167 variants.

The labels stand for the following.
B1: CPEB3 Ribozyme (parent)
chain: UAACAGGGGGCCACAGCAGAAGCGUUCACGUCGCAGCCCCUGUCAGAUUCUGGUGAAUCUGCGAAUUCUGCUGUAUAUCUC

Variants of B1 are the subject of this data set. Briefly: self-cleavage, relative activity (ratio to wild type); higher = more cleavage; in vitro, sequencing. An outline of the steps: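 Relative activity compares each variant's cleaved/total read fraction with that of the unmutated ribozyme. To get these fractions, barcoded CPEB3 ribozyme libraries from rounds of error-prone PCR were transcribed with T7 RNA polymerase for 5 hours at 37°C and then given 15 min of DNase I treatment before EDTA was added. The RNAs were reverse transcribed with template switching and sequenced on Illumina, and DNA sequencing linked barcodes to variants. A minimum of 5 reads applied, and three batches were averaged.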
Regarding A15G U76A, the self-cleavage was found to be 0.94.

Consider A15G U76C, for which the self-cleavage is 0.89.

As to A15G G16A, the self-cleavage was 0.33.

On to A15G G16U, for which the self-cleavage worked out at 0.25.

As to A15G C62U, the self-cleavage came to 0.26.

With A15G C62A, the self-cleavage amounted to 0.17.

As for A15G U67A, the self-cleavage came out at 0.35.

For the variant A15G U67G, the self-cleavage amounted to 0.4.

In the case of A15G U67C, the self-cleavage stood at 0.24.

As to A15U C37U, the self-cleavage was 0.29.

Regarding A15U, the self-cleavage came out at 0.76.

As for A15G, the self-cleavage is 0.92.

For the variant A15C, the self-cleavage turned out to be 0.92.

Consider A15G G33A, for which the self-cleavage came out at 0.24.

For A15G G33C, the self-cleavage was 0.29.

In the case of A15G G33U, the self-cleavage worked out at 0.12.

On to A15G U72G, for which the self-cleavage was 0.46.

Turning to A15G U72C, the self-cleavage stood at 1.16.

As for A15G U72A, the self-cleavage came to 0.48.

For A15G C29A, the self-cleavage stood at 0.16.

A15G C29U: the self-cleavage worked out at 0.41.

For the variant A15G C29G, the self-cleavage is 0.16.

Regarding A15G G63A, the self-cleavage is 0.79.

Turning to A15G G63C, the self-cleavage was found to be 0.86.

For A15G G73A, the self-cleavage stood at 1.19.

For A15G G73C, the self-cleavage is 1.16.

Consider A15C U58G, for which the self-cleavage came to 0.29.

Regarding A15C U58C, the self-cleavage is 0.21.

A15C U58A: the self-cleavage came out at 0.41.

Regarding A15U A20G, the self-cleavage was 0.41.

For the variant A15U A20U, the self-cleavage was 0.27.

For the variant A15C G73A, the self-cleavage was 1.26.

For the variant A15C U69C, the self-cleavage was found to be 0.26.

As to A15G G53U, the self-cleavage came to 1.02.

Take A15G G53A: the self-cleavage stood at 1.02.

Take A15G G53C: the self-cleavage came to 1.05.

Turning to A15C U60C, the self-cleavage was 0.28.

Turning to A15U A35G, the self-cleavage stood at 1.24.

Consider A15U A35U, for which the self-cleavage came out at 0.51.

As for A15G U43A, the self-cleavage is 1.05.

As to A15G U43G, the self-cleavage stood at 0.28.

As for A15G U43C, the self-cleavage was 0.47.

With A15G C39U, the self-cleavage was determined as 0.98.

In the case of A15G C39A, the self-cleavage is 0.32.

A15G C39G: the self-cleavage is 0.29.

As to A15C G33C, the self-cleavage came out at 0.16.

For the variant C14U U58C, the self-cleavage was 0.77.

For the variant A15G U80A, the self-cleavage was 1.07.

A15G U80G: the self-cleavage came to 0.86.

In the case of A15G U80C, the self-cleavage was determined as 1.06.

A15C A56U: the self-cleavage was 0.3.

For A15C A56G, the self-cleavage was found to be 0.68.

Take C14U U41C: the self-cleavage turned out to be 1.2.

Consider C14U U41A, for which the self-cleavage is 0.24.

With A15C C29U, the self-cleavage came out at 0.22.

A15G U58C: the self-cleavage was 0.44.

As to A15G U58A, the self-cleavage was 0.32.

C14U C40U: the self-cleavage turned out to be 1.07.

Take A15U A65U: the self-cleavage came to 0.37.

As for A15U A65G, the self-cleavage was 0.29.

Turning to A15G G55A, the self-cleavage worked out at 0.66.

For A15G G55U, the self-cleavage was determined as 0.65.

Regarding A15G A75U, the self-cleavage came to 1.02.

Turning to A15G A75G, the self-cleavage was found to be 0.92.

Turning to A15C A20G, the self-cleavage is 0.66.

As to A15C A20U, the self-cleavage turned out to be 0.35.

As for A15C A20C, the self-cleavage is 0.19.

Take A15U A28C: the self-cleavage was 0.33.

With A15U A28G, the self-cleavage came out at 0.22.

Consider A15U A28U, for which the self-cleavage is 0.38.

On to A15G A57U, for which the self-cleavage was found to be 0.56.

A15G A57G: the self-cleavage was 0.63.

Regarding C14U U26C, the self-cleavage is 0.66.

C14U U26A: the self-cleavage amounted to 0.93.

As for A15C U31C, the self-cleavage came out at 0.6.

A15C U31A: the self-cleavage amounted to 0.42.

As to A15C A35G, the self-cleavage came to 1.08.

Consider C14U U51C, for which the self-cleavage worked out at 1.25.

With C14U U51A, the self-cleavage was found to be 1.24.

Consider C14U U66C, for which the self-cleavage is 0.8.

For C14U U66A, the self-cleavage was determined as 0.52.

For the variant A15G C40A, the self-cleavage worked out at 0.41.

A15G C40U: the self-cleavage turned out to be 0.67.

For A15G C40G, the self-cleavage was 0.28.

On to C14U U67C, for which the self-cleavage was 0.23.

For C14U U67A, the self-cleavage was determined as 0.42.

As for A15U A75G, the self-cleavage was determined as 0.67.

For the variant A15U A75U, the self-cleavage was 0.87.

A15C U78A: the self-cleavage was determined as 1.05.

For A15C U78C, the self-cleavage amounted to 0.87.

As for C14U G61C, the self-cleavage was determined as 0.35.

Consider A15U A21G, for which the self-cleavage was 0.35.

As for A15U A21C, the self-cleavage was found to be 0.36.

A15U A21U: the self-cleavage was determined as 0.19.

On to A15C G53C, for which the self-cleavage turned out to be 0.95.

Turning to A15G C59A, the self-cleavage is 0.27.

Turning to A15G C59U, the self-cleavage came to 0.69.

With A15G G61A, the self-cleavage turned out to be 0.34.

As to A15C U43C, the self-cleavage worked out at 0.46.

A15C U43G: the self-cleavage came out at 0.25.

For the variant A15G A45C, the self-cleavage came to 0.31.

A15G A45G: the self-cleavage was determined as 0.66.

Regarding A15G A45U, the self-cleavage came out at 0.44.

As for A15U A18C, the self-cleavage is 0.35.

In the case of A15U A18U, the self-cleavage worked out at 0.25.

For A15U A18G, the self-cleavage is 0.29.

With C14U U49C, the self-cleavage was found to be 0.33.

For C14U U74G, the self-cleavage was found to be 1.27.

For A15U A56U, the self-cleavage stood at 0.47.

In the case of A15U A56G, the self-cleavage is 0.46.

For the variant A15U C39A, the self-cleavage was 0.24.

Take A15U C39U: the self-cleavage turned out to be 0.65.

A15C U80A: the self-cleavage turned out to be 1.22.

In the case of A15C A47U, the self-cleavage is 0.17.

As to A15C A47G, the self-cleavage was 0.85.

C14U U76C: the self-cleavage was determined as 1.15.

Take A15G C23G: the self-cleavage was determined as 0.42.

In the case of A15G C23U, the self-cleavage turned out to be 0.29.

Consider A15G C23A, for which the self-cleavage is 0.19.

For the variant A15U A57G, the self-cleavage came to 0.66.

Consider A15U A57U, for which the self-cleavage is 0.15.

For A15G U41C, the self-cleavage came out at 0.74.

Turning to A15G U41G, the self-cleavage came out at 0.38.

For the variant A15G U41A, the self-cleavage came to 0.23.

Take A15G G42C: the self-cleavage is 0.25.

Take A15G G42A: the self-cleavage came to 0.15.

As to A15C G63A, the self-cleavage was found to be 0.99.

Take A15G C32U: the self-cleavage is 0.19.

Consider A15G C32A, for which the self-cleavage worked out at 0.24.

With A15G C32G, the self-cleavage was determined as 0.11.

A15G U78A: the self-cleavage was found to be 0.96.

A15G U78G: the self-cleavage stood at 1.06.

Consider A15G U78C, for which the self-cleavage was 0.78.

Consider A15U C32U, for which the self-cleavage was found to be 0.4.

For the variant A15U C32G, the self-cleavage came to 0.06.

Turning to A15U C32A, the self-cleavage stood at 0.24.

As to A15G U54A, the self-cleavage amounted to 0.95.

For A15G U54G, the self-cleavage was determined as 0.96.

In the case of A15G U54C, the self-cleavage was 0.87.

For the variant A15G C37U, the self-cleavage worked out at 0.81.

For A15G C37A, the self-cleavage stood at 0.11.

For A15G C37G, the self-cleavage worked out at 0.69.

With A15C U72A, the self-cleavage was 0.8.

A15C U72C: the self-cleavage was 1.1.

With C14U C79A, the self-cleavage was determined as 1.29.

For the variant A15C U76A, the self-cleavage came to 1.19.

Consider A15U C38U, for which the self-cleavage is 0.67.

Consider A15U C38G, for which the self-cleavage was determined as 0.25.

Take A15U C38A: the self-cleavage amounted to 0.2.

Regarding A15C A28U, the self-cleavage stood at 0.8.

Consider A15U C23U, for which the self-cleavage came out at 0.23.

In the case of A15U C23A, the self-cleavage was 0.18.

Consider C14U G46U, for which the self-cleavage amounted to 0.27.

With C14U G46A, the self-cleavage was determined as 0.12.

As to A15G G24A, the self-cleavage is 0.39.

With A15G G24U, the self-cleavage came to 0.12.

For A15C U51C, the self-cleavage turned out to be 0.68.

With A15C U51A, the self-cleavage turned out to be 1.06.

Take C14U G33A: the self-cleavage was found to be 0.21.

Regarding C14U U31A, the self-cleavage was 0.74.

Take A15C C40U: the self-cleavage was 0.72.

Consider A15C A45U, for which the self-cleavage is 0.45.

On to A15C A45C, for which the self-cleavage is 0.37.

As for A15C A45G, the self-cleavage was 0.88.

For C14U G63A, the self-cleavage turned out to be 1.26.

Regarding C14U U69C, the self-cleavage amounted to 0.57.

For the variant C14U U78G, the self-cleavage is 1.27.
